From the supplement of paper PMC12764529
± gives the half width of the 95% confidence interval.

Tests used:
[1] = folding stability dG unfold from trypsin proteolysis; higher = more stable
Procedure, shortened: (§1)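 K50 was inferred by Bayesian fitting of sequencing counts obtained after protease digestion of designed mini-proteins. Unfolding free energy was derived by comparison with a sequence-predicted unfolded-state K50 and a shared folded-state K50, for each protease or both combined. The mini-proteins were under 80 residues, had no cysteine, were carried in a PA-tagged cDNA display construct, and were kept only if AlphaFold2 dimer inter-PAE exceeded 15.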

[2] = folding stability dG unfold from chymotrypsin proteolysis; higher = more stable
Procedure, shortened: as §1

[3] = folding stability dG unfold (combined trypsin and chymotrypsin); higher = more stable
Procedure, shortened: as §1

Sequence | folding stability dG unfold [1] | folding stability dG unfold [2] | folding stability dG unfold [3]
SAGGSAGGSKKVEVEILLLLPESTTEEEAKALAEELAEKIKEATPADDVEVKVVILKVPKNALSAGGSAGGS [r12_522_TrMRF] | 2 ± 0.12 kcal/mol | 1.89 ± 0.048 kcal/mol | 1.92 ± 0.21 kcal/mol
SAGGSAGGSKKVKEVTITVKNKDGKTVKITKIYKKKDGSKYVLIKDKKTKKTYKISLEDLKKLSAGGSAGGS [r12_488_TrROS_Hall] | 1.11 ± 0.05 kcal/mol | 2.29 ± 0.076 kcal/mol | 1.8 ± 0.14 kcal/mol
SAGGSAGGSKKVKIIEIDLKDMSPEEILELIKKEKVDAIIIKSDTPEAKRLAEKLKEAGFKVISAGGSAGGS [r12_610_TrROS_Hall] | 1.46 ± 0.043 kcal/mol | 2.36 ± 0.055 kcal/mol | 2.05 ± 0.059 kcal/mol
SAGGSAGGSKLEEILKKLPPNAKITIEKDEETNVYTITITNKNGEKYTFTFSKEEVKKLLEKLSAGGSAGGS [r12_174_TrROS_Hall] | 3.13 ± 0.19 kcal/mol | 4.76 ± 0.24 kcal/mol | 4.62 ± 0.22 kcal/mol
SAGGSAGGSKLGVFEVGGKRYAVKVTDKNGKELTLAIPPELLKKLPKNLKVEVKEVKPGEPIPSAGGSAGGS [r12_419_TrMRF] | 0.218 ± 0.16 kcal/mol | 0.738 ± 0.23 kcal/mol | 0.635 ± 0.15 kcal/mol
SAGGSAGGSKLKIPIIRKFKPDEPLPTAEDVKAILEELGLDIKEVKVTYFPEYGYAIAEVEVSSAGGSAGGS [r12_1052_TrMRF] | 1.57 ± 0.033 kcal/mol | 1.24 ± 0.039 kcal/mol | 1.41 ± 0.067 kcal/mol
SAGGSAGGSKMLLVKVYVPEFDTVVVFEAPRDITIEEIEERLREAGFSVARIEVVEFDLPEGGSAGGSAGGS [r12_955_TrMRF] | 3.02 ± 0.049 kcal/mol | 3.766 ± 0.022 kcal/mol | 3.55 ± 0.071 kcal/mol
SAGGSAGGSKMRERTITFPNAKITIWYHPDGNVRMEVMNPGNGKPKREIWMKPGDIEEILKKFSAGGSAGGS [r20_129_TrROS] | 1.62 ± 0.043 kcal/mol | 2.58 ± 0.038 kcal/mol | 2.32 ± 0.049 kcal/mol
SAGGSAGGSKNGEPPPVPTITMRFKDPDKIRKLNKKAGLPIEHDPGNGYITFPYRQIDKILKASAGGSAGGS [r12_325_TrROS] | 3.98 ± 0.8 kcal/mol | 5.86 ± 0.32 kcal/mol | > 6 kcal/mol
SAGGSAGGSKNMVMVEIPFEHKVKQPDPPDGKWRQHEHKPTIPYMIPPEDAEELLNSPALKKISAGGSAGGS [r12_1015_TrROS] | 0.138 ± 0.2 kcal/mol | 0.0107 ± 0.21 kcal/mol | 0.043 ± 0.19 kcal/mol
SAGGSAGGSKPDEVEVIEIKVPPGARVRLPDGSVVEIKPGDPNTTYRIVVDKKNKKITIEPLDSAGGSAGGS [r12_338_TrROS_Hall] | 1.38 ± 0.12 kcal/mol | 1.43 ± 0.12 kcal/mol | 1.46 ± 0.27 kcal/mol
SAGGSAGGSKPGKPREIMIPFPDNWFMSIRVWPGRIEIENPDNGKEFEIPIGAPIEIELFPLDSAGGSAGGS [r12_227_TrROS] | 1.98 ± 0.035 kcal/mol | 1.81 ± 0.095 kcal/mol | 1.89 ± 0.17 kcal/mol
SAGGSAGGSKPIKTKATIPLPNGKTITADVEIVVLPDGNILLRVPSGKVILVPPNYPVTFEDASAGGSAGGS [r20_227_TrMRF] | 1.71 ± 0.025 kcal/mol | 1.62 ± 0.021 kcal/mol | 1.67 ± 0.036 kcal/mol
SAGGSAGGSKPRPIDIMFPNPENGRPVMIRIEYTKDKIKAEWYFGNKPQEKKIDDPEDLLEFISAGGSAGGS [r12_299_TrROS] | 0.0886 ± 0.055 kcal/mol | 1.08 ± 0.1 kcal/mol | 0.754 ± 0.096 kcal/mol
SAGGSAGGSKPVLKITVTNEKGEKQTISLDELQAETGLSAEEIAARLAALLPPGAKITIEPVPSAGGSAGGS [r12_399_TrROS_Hall] | 1.81 ± 0.024 kcal/mol | 2.11 ± 0.023 kcal/mol | 1.98 ± 0.048 kcal/mol
SAGGSAGGSKRKIKVDDVEPPPNGFMRVTLEVDDGKPLVPINIPPGQTPSEVKDQVKDLVEELSAGGSAGGS [r12_798_TrROS] | 3.86 ± 0.31 kcal/mol | 3.74 ± 0.41 kcal/mol | 3.85 ± 0.49 kcal/mol
SAGGSAGGSKTIEIVVPPNTTPEEIAKKLKELFPDAKITSVEVYVDKKTKKIVYVKVKIEVKPSAGGSAGGS [r12_822_TrROS_Hall] | 2.68 ± 0.1 kcal/mol | 3.82 ± 0.057 kcal/mol | 3.46 ± 0.087 kcal/mol
SAGGSAGGSKTIKIEIEKMSEEELKNLTAEEIAKLLGVKEVKVTKEKIEITLTEEELKKLEKKSAGGSAGGS [r12_178_TrROS_Hall] | 0.257 ± 0.099 kcal/mol | 1.24 ± 0.022 kcal/mol | 0.856 ± 0.14 kcal/mol
SAGGSAGGSKTILIVLPPGEELTPEQLKALAAALPPDATLTILVYDPETKELHVFTFKLPEGLSAGGSAGGS [r12_913_TrROS_Hall] | 2.99 ± 0.069 kcal/mol | 4.14 ± 0.054 kcal/mol | 3.87 ± 0.081 kcal/mol
SAGGSAGGSKTLIIKIKVEGLSEEEIAEELAKKLQEETGLKIKSVKIEKKDGYLYIEVEVEEPSAGGSAGGS [r12_781_TrROS_Hall] | 3.86 ± 0.4 kcal/mol | 3.96 ± 0.17 kcal/mol | 4.15 ± 0.21 kcal/mol
SAGGSAGGSKTVYRITIYNEKTGKKLVIEIEESMSEEEKEQKIKDLLKKLLPPGAKIKIEKVPSAGGSAGGS [r20_213_TrROS_Hall] | 3.34 ± 0.44 kcal/mol | 4.44 ± 0.2 kcal/mol | 4.08 ± 0.25 kcal/mol
SAGGSAGGSKTYKIKVEKLEDGTYKLKIIDKKTKKEYEITISKKNLPKIKEIKITKNGKIEIKSAGGSAGGS [r20_11_TrROS_Hall] | 1.73 ± 0.026 kcal/mol | 3.08 ± 0.071 kcal/mol | 2.75 ± 0.12 kcal/mol
SAGGSAGGSKVKIETVENEDGVKFERVVDEETGKTVFLAKNKKTGKLYLFVITPDGEIKVFELSAGGSAGGS [r12_474_TrROS_Hall] | 1.42 ± 0.033 kcal/mol | 2.6 ± 0.049 kcal/mol | 2.27 ± 0.089 kcal/mol
SAGGSAGGSKYYRVRFKEEIEITLENGEKLKIKKGDVIVVPSKEDLDRLKALFPNLEVEVEPVSAGGSAGGS [r12_987_TrROS_Hall] | 3.16 ± 0.1 kcal/mol | 3.91 ± 0.043 kcal/mol | 3.7 ± 0.099 kcal/mol
SAGGSAGGSLKPGQPYIMIRIKIQHPNGNTRTFNIMVPWNDIPQILDFLESHGFKIKDIEIFPSAGGSAGGS [r12_986_TrROS] | 3.94 ± 0.21 kcal/mol | 5.42 ± 0.17 kcal/mol | 5.09 ± 0.2 kcal/mol
SAGGSAGGSLLEDIKKALEIIKPPPIPVKVKVKIEYDPEKGELKVEVEFFGIKLKVEGEFKIESAGGSAGGS [r20_230_TrMRF] | 2.07 ± 0.22 kcal/mol | 3.4 ± 0.16 kcal/mol | 3.04 ± 0.26 kcal/mol
